Laboratory results published in patent publication US20210095028A1 (NANJING LEGEND BIOTECH, published 2021).
Read-outs that look alike come from different tables or passages of the source.

T1: Human TIGIT protein with HIS tag (human, UniProt Q495A1 22-141)
T1 construct: A soluble analyte is probably only the extracellular part; also called human TIGIT recombinant protein; not shown: HIS tag
T1 sequence: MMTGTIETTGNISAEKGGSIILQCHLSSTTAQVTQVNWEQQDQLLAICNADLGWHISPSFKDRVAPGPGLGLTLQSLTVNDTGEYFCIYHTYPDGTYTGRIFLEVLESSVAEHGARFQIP

T2: human TIGIT over-expressed on cells (human, UniProt Q495A1 22-244)
T2 construct: also called CHO-K1/human TIGIT cells; CHO cells expressing human TIGIT
T2 sequence: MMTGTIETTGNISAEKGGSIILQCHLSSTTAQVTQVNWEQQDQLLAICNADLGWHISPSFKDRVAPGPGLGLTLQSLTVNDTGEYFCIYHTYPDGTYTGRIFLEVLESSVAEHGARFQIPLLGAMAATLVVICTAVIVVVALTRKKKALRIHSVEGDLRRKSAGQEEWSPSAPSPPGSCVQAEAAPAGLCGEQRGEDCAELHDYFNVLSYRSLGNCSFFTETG


Experiments:
[1] = target: T1, Human TIGIT protein with HIS tag; experiment: SPR Biacore T200; antibody Fc-captured, TIGIT-His analyte
Protocol: Binding kinetics of mouse anti-human TIGIT monoclonal antibodies to human TIGIT were determined using a Surface Plasmon Resonance (SPR) biosensor, BIACORE® T200 (GE Healthcare; Little Chalfont, United Kingdom). […] Each mouse anti-human TIGIT monoclonal antibody was immobilized on the sensor chip through the Fc capture method. Human TIGIT protein with HIS tag was used as the analyte. The dissociation (kd) and association (kₐ) rate constants were obtained using the BIACORE® T200 evaluation software. The apparent equilibrium dissociation constants (KD) were calculated from the ratio of kd over kₐ.

[2] = target: T3, cynomolgus TIGIT over-expressed on CHO-K1 cells (cynomolgus, UniProt A0A7N9I9V4 89-312); experiment: FACS, CHO-K1 cells over-expressing cynomolgus TIGIT
T3 construct: whole, on cells; also called CHO-K1/cynomolgus TIGIT cells
Protocol: (§1) The mixture was equilibrated for 30 minutes at room temperature and washed three times with FACS buffer (PBS containing 1% BSA). iFluor labeled goat anti-mouse IgG as the secondary antibody was added and incubated at room temperature for 45 min. Finally, the cells were washed 3 time with PBS, and the signal was read by FACS BD Calibur. Data was analyzed with PRISM™ (GraphPad Software, San Diego, Calif.) using non-linear regression and EC₅₀ values were calculated.

[3] = target: T2, human TIGIT over-expressed on cells; experiment: competition FACS, CHO cells expressing human TIGIT; competitor PVR recombinant protein
Protocol: The mixture was equilibrated for 30 minutes at room temperature, and washed three times with FACS buffer (PBS containing 1% BSA). PE/Cy5 Streptavidin secondary antibody was then added to the mixtures and incubated for 15 minutes at room temperature. Subsequently, the cells were washed with FACS buffer and analyzed by flow cytometry. Data was analyzed with PRISM™ (GraphPad Software, San Diego, Calif.) using non-linear regression, and IC₅₀ values were calculated (FIGS. 4A-4B and Table 6).

[4] = target: T2, human TIGIT over-expressed on cells; experiment: cell-based or functional assay
[5] = target: T2, human TIGIT over-expressed on cells; experiment: cell-based or functional assay; remark: listed apart in the source
[6] = target: T2, human TIGIT over-expressed on cells; experiment: FACS, CHO-K1 cells over-expressing human TIGIT
Protocol: as §1

[7] = target: T2, human TIGIT over-expressed on cells; experiment: FACS, CHO-K1 cells over-expressing human TIGIT; remark: listed apart in the source
Protocol: as §1, with “Binding affinities of the chimeric anti-human TIGIT monoclonal antibodies and the humanized anti-human TIGIT monoclonal antibodies to human or cynomolgus TIGIT over-expressed on CHO-K1 cells were determined using a fluorescence-activated cell sorting (FACS)-based assay. […] The” for “The”

[8] = target: T2, human TIGIT over-expressed on cells; experiment: competition FACS, CHO cells expressing human TIGIT; competitor PVR recombinant protein; remark: listed apart in the source
Protocol: (§2) To assess the competitive binding on human TIGIT between the chimeric anti-human TIGIT monoclonal antibodies or the humanized anti-human TIGIT monoclonal antibodies and PVR, the chimeric anti-human TIGIT monoclonal antibody or the humanized anti-human TIGIT monoclonal antibody samples were prepared (starting at 300 nM, ≤3-fold serial dilution with 10 concentrations). CHO cells expressing human TIGIT were dissociated from adherent culture flasks and mixed with varying concentrations of each chimeric anti-human TIGIT monoclonal antibody or the humanized anti-human TIGIT monoclonal antibody and 5 μg/ml […] fusion protein having a biotin label. The mixture was equilibrated for 30 minutes at room temperature and washed three times with FACS buffer (PBS containing 1% BSA). PE/Cy5 Streptavidin secondary antibody was then added to the mixtures and incubated for 15 minutes at room temperature. Subsequently, the cells were washed with FACS buffer and analyzed by flow cytometry. Data was analyzed with PRISM™ (GraphPad Software, San Diego, Calif.) using non-linear regression, and IC₅₀ values were calculated (FIG. 7 and Table 13).

[9] = target: T3, cynomolgus TIGIT over-expressed on …; experiment: FACS, CHO-K1 cells over-expressing cynomolgus TIGIT; remark: listed apart in the source
Protocol: as §1, with “Binding affinities of the chimeric anti-human TIGIT monoclonal antibodies and the humanized anti-human TIGIT monoclonal antibodies to human or cynomolgus TIGIT over-expressed on CHO-K1 cells were determined using a fluorescence-activated cell sorting (FACS)-based assay. […] The” for “The”

[10] = target: T1, Human TIGIT protein with HIS tag; experiment: SPR Biacore T200; antibody Fc-captured, TIGIT-His analyte; remark: listed apart in the source
Protocol: Binding kinetics of the chimeric anti-human TIGIT monoclonal antibodies and the humanized anti-human TIGIT monoclonal antibodies to human TIGIT were determined using a Surface Plasmon Resonance (SPR) biosensor, BIACORE® T200 (GE Healthcare). Different concentrations of the chimeric anti-human TIGIT monoclonal antibodies or humanized anti-human TIGIT monoclonal antibodies were prepared starting at 50 nM with a 3-fold serial dilution. Each chimeric anti-human TIGIT monoclonal antibody or each humanized anti-human TIGIT monoclonal antibody was immobilized on the sensor chip through the Fc capture method. Human TIGIT protein with a HIS tag was used as the analyte. The dissociation (kd) and association (kₐ) rate constants were obtained using the BIACORE® T200 evaluation software. The apparent equilibrium dissociation constants (KD) were calculated from the ratio of kd over kₐ.

[11] = target: T2, human TIGIT over-expressed on cells; experiment: competition FACS, CHO cells expressing human TIGIT; competitor PVR recombinant protein (column headed EC50, text says IC50)
Protocol: as §2

[12] = target: T2, human TIGIT over-expressed on cells; experiment: cell-based or functional assay; remark: listed apart in the source

T3 sequence (A0A7N9I9V4 entry or part of it): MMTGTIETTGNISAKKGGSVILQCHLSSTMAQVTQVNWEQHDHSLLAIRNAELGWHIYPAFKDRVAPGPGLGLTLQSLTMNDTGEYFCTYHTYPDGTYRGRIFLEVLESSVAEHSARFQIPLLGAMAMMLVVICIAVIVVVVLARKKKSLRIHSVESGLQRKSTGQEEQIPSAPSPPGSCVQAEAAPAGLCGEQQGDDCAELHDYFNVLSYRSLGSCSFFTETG

Binder | Bottom (best-fit) [7] | EC50 [7] [nM] | Top (best-fit) [7] | Bottom (best-fit) [8] | Top (best-fit) [8] | Bottom (best-fit) [9] | EC50 [9] [nM] | Top (best-fit) [9] | Kd [10] [nM] | koff [10] [s⁻¹] | kon [10] [M⁻¹ s⁻¹] | IC50 [11] [nM] | IL-2 secretion in T cell activation, Bottom (best-fit) [12] | IL-2 secretion in T cell activation, EC50 [12] [nM] | IL-2 secretion in T cell activation, Top (best-fit) [12] | further results
64G1E9B4 (antibody, V domains shown, Mouse monoclonal antibody; also called mouse anti-human TIGIT monoclonal antibody 64G1E9B4) VH: EVQLQQSGPELVKPGASVKISCKTSGYTFTEHVIHWVKQSHGKSLEWIGGFNPNHDGTIYNQIFRGKATLTVDKSSSTAYMELRSLTSEDSAVYFCTRAAKLLFAMDYWGQGTSVTVSS VL: DIVMTQSHKFMSTSIGDRVSITCKASQHVSNAVVWYQQKPGQSPKLLIYSPSYRFTGVPDRFTGSGSGTDFTFTISSVQAEDLAVYYCQQHYSTPWTFGGGTKLEIK |  |  |  |  |  |  |  |  |  |  |  |  |  |  |  | Kd [1]: 0.23 nM; koff [1]: 0.00015 s⁻¹; kon [1]: 650000 M⁻¹ s⁻¹; Bottom (best-fit) [2]: 15.3; EC50 [2]: 1.58 nM; Top (best-fit) [2]: 455; Bottom (best-fit) [3]: 9.5; IC50 [3]: 1 nM; Top (best-fit) [3]: 67.1; IL-2 secretion in T cell activation, Bottom (best-fit) [4]: 111; IL-2 secretion in T cell activation, EC50 [4]: 0.82 nM; IL-2 secretion in T cell activation, Top (best-fit) [4]: 283; luciferase signal in T cell activation, Bottom (best-fit) [5]: 5.7; luciferase signal in T cell activation, EC50 [5]: 1.64 nM; luciferase signal in T cell activation, Top (best-fit) [5]: 124; Bottom (best-fit) [6]: 15.3; EC50 [6]: 0.61 nM; Top (best-fit) [6]: 113
64G1E9B4 chimeric (antibody, V domains shown, also called 64G1 Chimeric) VH: EVQLQQSGPELVKPGASVKISCKTSGYTFTEHVIHWVKQSHGKSLEWIGGFNPNHDGTIYNQIFRGKATLTVDKSSSTAYMELRSLTSEDSAVYFCTRAAKLLFAMDYWGQGTSVTVSS VL: DIVMTQSHKFMSTSIGDRVSITCKASQHVSNAVVWYQQKPGQSPKLLIYSPSYRFTGVPDRFTGSGSGTDFTFTISSVQAEDLAVYYCQQHYSTPWTFGGGTKLEIK | 3600 | 0.47 | 23400 | 197 | 772 | 3920 | 1.33 | 25600 | 0.07 | 6.4e-05 | 910000 | 0.51 | 204 | 0.66 | 462 | 
64G1E9B4VH1_VL1.M1 (antibody, human IgG1, V domains shown, Humanized antibody, variable domains fused with the constant region of human IgG1; also called 64G1VH1_VL1.M1) VH: EVQLVQSGAEVKKPGSSVKVSCKASGYTFTEHVIHWVRQAPGQGLEWMGGFNPNHDGTIYNQIFRGRVTITADKSTSTAYMELSSLRSEDTAVYYCARAAKLLFAMDYWGQGTTVTVSS VL: DIQMTQSPSSLSASVGDRVTITCRASQHVSNAVVWYQQKPGKAPKLLIYSPSYRFTGVPSRFSGSGSGTDFTLTISSLQPEDFATYYCQQHYSTPWTFGGGTKVEIK | 3190 | 0.89 | 22900 | 139 | 820 | 3010 | 1.65 | 24700 | 0.15 | 8.8e-05 | 590000 | 0.79 | 182 | 1.27 | 508 | 

Second part, led by results:

Bottom (best-fit) [7] | EC50 [7] [nM] | Top (best-fit) [7] | Bottom (best-fit) [8] | Top (best-fit) [8] | Bottom (best-fit) [9] | EC50 [9] [nM] | Top (best-fit) [9] | Kd [10] [nM] | koff [10] [s⁻¹] | kon [10] [M⁻¹ s⁻¹] | IC50 [11] [nM] | IL-2 secretion in T cell activation, Bottom (best-fit) [12] | IL-2 secretion in T cell activation, EC50 [12] [nM] | IL-2 secretion in T cell activation, Top (best-fit) [12] | Binder | further results
4160 | 0.58 | 25600 | 170 | 678 | 4880 | 1.03 | 23700 | 0.17 | 0.00016 | 910000 | 0.49 | 247 | 2.14 | 419 | 100C4E7D11 chimeric (antibody, V domains shown, also called 100C4 Chimeric) VH: EVMLVESGGGLVKPGGSLKLSCAASGFTFSFYTMSWVRQTPEKRLEWVATISSGGGSTYYSDSVKGRFTISRDNAKNNLYLQMTSLRSEDTALYYCSRSLPVDYWGQGTTLTVSS VL: QIVLTQSPAIMSASLGERVTMTCTASSSVSSTYLHWYQQKPGSSPKLWIYSTSNLASGVPARFSGSGSGTSYSLTISSMEAEDAATYYCHLYHHSPYTFGGGTKLEIK | 
1530 | 0.43 | 24700 | 201 | 508 | 5530 | 0.91 | 29200 | 0.17 | 0.0001 | 630000 | 0.35 | 209 | 0.63 | 467 | 64G1E9B4VH1.M1_VL1.M1 (antibody, human IgG1, V domains shown, Humanized antibody, variable domains fused with the constant region of human IgG1; also called 64G1VH1.M1_VL1.M1) VH: EVQLVQSGAEVKKPGSSVKVSCKASGYTFTEHVIHWVRQAPGQGLEWMGGFNPNHGGTIYNQIFRGRVTITADKSTSTAYMELSSLRSEDTAVYYCARAAKLLFAMDYWGQGTTVTVSS VL: DIQMTQSPSSLSASVGDRVTITCRASQHVSNAVVWYQQKPGKAPKLLIYSPSYRFTGVPSRFSGSGSGTDFTLTISSLQPEDFATYYCQQHYSTPWTFGGGTKVEIK | 
4110 | 1.15 | 25200 | 150 | 755 | 2830 | 2.85 | 29800 | 0.57 | 0.00035 | 610000 | 1.29 | 217 | 5.21 | 435 | 100C4E7D11VH1_VL1 (antibody, V domains shown, Humanized antibody, variable domains fused with the constant region of human IgG1; also called 100C4VH1_VL1) VH: EVQLVESGGGLVKPGGSLRLSCAASGFTFSFYTMSWVRQAPGKGLEWVSTISSGGGSTYYSDSVKGRFTISRDNAKNSLYLQMNSLRAEDTAVYYCARSLPVDYWGQGTTVTVSS VL: EIVLTQSPGTLSLSPGERATLSCTASSSVSSTYLHWYQQKPGQAPRLLIYSTSNLASGIPDRFSGSGSGTDFTLTISRLEPEDFAVYYCHLYHHSPYTFGGGTKVEIK | 
